Values belong to the binder of their own block, whether it stands above or below them.
B1: recombinant human S100A8 protein (other)
chain: LTELEKALNSIIDVYHKYSLIKGNFHAVYRDDLKKLLETECPQYIRKKGADVWFKELDINTDGAVNFQEFLILVIKMGVAAHKKSHEESHKE
notes: also called recS100A8; MRP8

What was measured:
[1] = target: T1, recombinant human S100A9 protein, wild type (human, UniProt P06702 2-114); assay: MALDI-MS, native solvent conditions, no calcium
T1 construct: also called recS100A9; S100A9 wt
T1 sequence: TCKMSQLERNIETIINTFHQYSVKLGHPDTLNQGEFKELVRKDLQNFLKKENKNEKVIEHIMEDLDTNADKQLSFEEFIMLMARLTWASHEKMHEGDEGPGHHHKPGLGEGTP

[2] = target: the molecule itself; assay: glycerol density gradient centrifugation, 100 uM Ca2+
Method: (§1) FIG. 5: Density gradient centrifugation. wt and mutant recS100A8/S100A9 complexes were loaded on a glycerol gradient in the presence of either 1 mM EGTA or 100 μM Ca²⁺. After centrifugation, successive fractions of the gradients were analyzed by SDS-PAGE. […] Addition of calcium induced a marked shift for recS100A8/S100A9 wt to higher glycerol densities, whereas for the mutant complexes recS100A8/S100A9(N69A) and recS100A8/S100A9(E78A) no shift was observed.

[3] = target: the molecule itself; assay: MALDI-MS, native solvent conditions, with calcium
Excerpt: FIG. 2: MALDI mass spectra in the absence and presence of calcium under native solvent conditions. (a) MALDI mass spectra of recS100A8/S100A9 wt complexes in the absence (left) and presence (right) of calcium using 2,6-dihydroxy-acetophenone as matrix. The mass spectra between m/z 20,000 and 100,000 together with an inset between m/z 46,000 and 50,000 are shown. T⁺, singly charged; T²⁺, doubly charged; T³⁺, triply charged tetramer. (b) MALDI mass spectra of recS100A8/S100A9(N69A) mutant complexes in the absence (left) and presence (right) of calcium.
The oligomerization properties of the recS100A8/S100A9 mutant complexes can be determined by MALDI-MS. As shown exemplarily for the N69A mutant in FIG. 2(b), all mutant S100A9 proteins display signals for singly charged heterodimers in the absence of calcium. In contrast to the results obtained with the recS100A8/S100A9 wt proteins no heterotetramers can be observed for the mutant complexes in the presence of calcium (FIG. 2). The base peaks under these conditions exclusively represent S100A8/S100A9(N69A), S100A8/S100A9(E78A) and S100A8/S100A9(N69A+E78A) heterodimers. All MALDI-MS experiments presented here were also confirmed by ESI-MS measurements (see FIG. 3).

[4] = target: B1; assay: ESI-MS, native solvent conditions
[5] = target: B1; assay: glycerol density gradient centrifugation, 1 mM EGTA
Method: as §1

Binder: B1
- binding result [1]: binds

B2: recS100A8/S100A9 wt heterodimer (other)
chain 1: LTELEKALNSIIDVYHKYSLIKGNFHAVYRDDLKKLLETECPQYIRKKGADVWFKELDINTDGAVNFQEFLILVIKMGVAAHKKSHEESHKE
chain 2: TCKMSQLERNIETIINTFHQYSVKLGHPDTLNQGEFKELVRKDLQNFLKKENKNEKVIEHIMEDLDTNADKQLSFEEFIMLMARLTWASHEKMHEGDEGPGHHHKPGLGEGTP
notes: Heterodimer of one S100A8 and one S100A9 chain; Two such heterodimers associate to the (S100A8/S100A9)2 tetramer in the presence of calcium; also called recS100A8/S100A9 wild-type complex; wt S100A8/S100A9
- binding result [2]: binds

B3: recS100A8/S100A9(N69A) heterodimer (other)
chain 1: LTELEKALNSIIDVYHKYSLIKGNFHAVYRDDLKKLLETECPQYIRKKGADVWFKELDINTDGAVNFQEFLILVIKMGVAAHKKSHEESHKE
chain 2: TCKMSQLERNIETIINTFHQYSVKLGHPDTLNQGEFKELVRKDLQNFLKKENKNEKVIEHIMEDLDTAADKQLSFEEFIMLMARLTWASHEKMHEGDEGPGHHHKPGLGEGTP
notes: Heterodimer of S100A8 and mutated S100A9; also called recS100A8/S100A9(N69A) mutant complex
- binding result [3]: no binding

B4: recS100A8/S100A9(E78A) heterodimer (other)
chain 1: LTELEKALNSIIDVYHKYSLIKGNFHAVYRDDLKKLLETECPQYIRKKGADVWFKELDINTDGAVNFQEFLILVIKMGVAAHKKSHEESHKE
chain 2: TCKMSQLERNIETIINTFHQYSVKLGHPDTLNQGEFKELVRKDLQNFLKKENKNEKVIEHIMEDLDTNADKQLSFEAFIMLMARLTWASHEKMHEGDEGPGHHHKPGLGEGTP
notes: Heterodimer of S100A8 and mutated S100A9; also called recS100A8/S100A9(E78A) mutant complex
- binding result [3]: no binding

B5: recS100A8/S100A9(N69A+E78A) heterodimer (other)
chain 1: LTELEKALNSIIDVYHKYSLIKGNFHAVYRDDLKKLLETECPQYIRKKGADVWFKELDINTDGAVNFQEFLILVIKMGVAAHKKSHEESHKE
chain 2: TCKMSQLERNIETIINTFHQYSVKLGHPDTLNQGEFKELVRKDLQNFLKKENKNEKVIEHIMEDLDTAADKQLSFEAFIMLMARLTWASHEKMHEGDEGPGHHHKPGLGEGTP
notes: Heterodimer of S100A8 and doubly mutated S100A9
- binding result [3]: no binding

- binding result [4]: binds
B6: recombinant human S100A9(N69A+E78A) (other)
chain: TCKMSQLERNIETIINTFHQYSVKLGHPDTLNQGEFKELVRKDLQNFLKKENKNEKVIEHIMEDLDTAADKQLSFEAFIMLMARLTWASHEKMHEGDEGPGHHHKPGLGEGTP
notes: also called double mutant

- binding result [5]: binds
B7: recombinant human S100A9(N69A) (other)
chain: TCKMSQLERNIETIINTFHQYSVKLGHPDTLNQGEFKELVRKDLQNFLKKENKNEKVIEHIMEDLDTAADKQLSFEEFIMLMARLTWASHEKMHEGDEGPGHHHKPGLGEGTP
notes: also called N69A mutant

- binding result [5]: binds
B8: recombinant human S100A9(E78A) (other)
chain: TCKMSQLERNIETIINTFHQYSVKLGHPDTLNQGEFKELVRKDLQNFLKKENKNEKVIEHIMEDLDTNADKQLSFEAFIMLMARLTWASHEKMHEGDEGPGHHHKPGLGEGTP
notes: also called E78A mutant

— patent publication US20180017576A1 (WESTFAELISCHE WILHELMS UNIVERSITAET MUENSTER, published 2018)
